Protein production data for 19 sequences are collected here from a protein production outcome set (Wang et al. 2014).

The data set is described as follows: label from the status in PepcDB records.
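Also: failed if final PepcDB status was selected cloned or expressed and not failed if soluble or beyond.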

For “MLKQRVITAMWLLPLMLGMLFYAPQWLWAAFCGLIALIALWEYARMGGLCKIKTNHYLAATLVFGVVAYAGGWMLPNLVWYVVLAFWLAVMPLWLRFKWRLNGGWQVYAVGWLLVMPFWFALVSLRPHPDDALPLLAVMGLVWVADICAYFSGKAFGKHKIAPAISPGKSWEGAIGGAVCVAVYMTAVRSAGWLAFDTGWFDTVLIGLVLTVVSVCGDLLESWLKRAAGIKDSSKLLPGHGGVFDRTDSLIAVISVYAAMMSVLN”, the protein production result is “failed”.
As for “MLKRLSVVHSPNGAPMAPSSHEWTDTLKDVYTARAANADLNARYIPLLPVNQRIQHERDRALANMLRQHLSVPPAQARVLEVGCGSGSNLLDLIRLGFDPANLMGNDLMDSRVEQARHRLPQAVPILAGNALDLDLEREGFDVLYQSTVFTSILDAQARRDLAQRMWHWTKPGGGVLWYDFAYNNPRNPNVRGVPLREVRALFPHARIHTARVTLAPPLARRLPATLYAPVNNLCPFLRTHLLCWIGKPAAP”, the protein production entry is on record as “failed”.
As for “MLKRSIRLLTMGIIWFAISVANSTGRAEKSSDLERYLNTIQDPENIDKPFQPLQAGEYDQAYDYYIQGYYLKAFREALRRAEQNDPFAQTLVARIYMEGCAVPIDGARAALWFGRAAKQGEPQAQLRYGLMLFDGNFIAQNQEIGEEFIRKAVDAGVKEAYYYYGQLLLYKASREKQALAGVFSQSQENEAIDQALKWFLKGAALGDAAAAFAAAKILSLGTLTRPKDDRNARKLMEVAAQNKHLEAQILLAQWLVQGRGGETDFQRAFHLLLSNATKMIAPAQVALARLYRDGIGTKGDIVRAAAWYMLAKHAKIQAPDLEMMLEGMDHAQLEEARKEIIKLLPIF”, the protein production entry was “failed”.
Turning to “MLKRTFILIGLVLSFCSLPAQELIQITTRNTALVFRVANQSLRQVYYGPRLADTDVLQKQGNNFPAYSTYGMGEQNEVALHAVHADGNTSTLLNFENVKQESPEPGITLTTISLKDPLYPFQVKLFYKAYEESDLIEQWTIYQHTEKKPVTLYQFASAQLSFKSSSYRLTHFAGDWAGECNMSEVELTEGIKVIDSKLGTRATFFAHPMCLLSLNGRMTEDNGEVIGMALAWPANFKLEFEKNNNQELRVLAGMNPYASHYKLKKGDVFQTPSFLYTYSTKGNGQVSRNFHRWARKYGLRHGENSRYTLMNNWEATYFNFNEPKLKSIIEDAAGMGFELFLLDDGWFGQKHPRNNDDAGLGDWVVNKEKLPNGLGWLVKQCTDNDIKFGIWVEPEMVNPQSELFEKHPDWVIQQPEREHILFRRQLVLDLSNPEVQEFVYKSVHDILKDNPQIAFVKWDCNRAVTNPGSTYLPADEQSHIWIEYGRGLLNVFKKVRDSHPDVHFMLCSGGGGRLDYGSLRYFEEYWPSDNTDALQRILIQWGNSQFFPSIAMCCHVSASPNHQTGRTTPLKFRFDVAMQGALGMDLQPSTMNEKEVIFAKEAIKTYESIRNIVFTGDLYRILSPYEGNRTSMMYVLPDKSRAVFYAYQLKSHIGEVSAPMRFKGLIPDKKYNVKELNIYPGSRAATGSANGQSFSGDFLMNQGLPIGLSGDYSSAVIELEQQ”, the protein production result is listed as “failed”.
In the case of “MLKSGRLNFLKLNINSRLLYSTNPQLTKKVIGIDLGTTNSAVAYIRDSNDKKSATIIENDEGQRTTPSIVAFDVKSSPQNKDQMKTLVGMAAKRQNAINSENTFFATKRLIGRAFNDKEVQRDMAVMPYKIVKCESNGQAYLSTSNGLIQSPSQIASILLKYLKQTSEEYLGEKVNLAVITVPAYFNDSQRQATKDAGKLAGLNVLRVINEPTAAALSFGIDDKRNNGLIAVYDLGGGTFDISILDIEDGVFEVRATNGDTHLGGEDFDNVIVNYIIDTFIHENPEITREEITKNRETMQRLKDVSERAKIDLSHVKKTFIELPFVYKSKHLRVPMTEEELDNMTLSLINRTIPPVKQALKDADIEPEDIDEVILVGGMTRMPKIRSVVKDLFGKSPNSSVNPDETVALGAAIQGGILSGEIKNVLLLDVTPLTLGIETFGGAFSPLIPRNTT”, the protein production entry is on record as “failed”.
For the sequence “MLKSILKVAVISTIGLSTVACTVNDQRIARYGVGGAAIGALAGTAIAGSTPEAALTGAAVGAIAGSVTGAAVNQQRQQRQRQQRQIVAPHPAMCTYRNRKGQVYSAPCAQKVQTPQLCTYRDGRGVMYQAPCPQRVR”, the protein production result was “failed”.
Turning to “MLKSVNLPVCHSLRNHLAVSSISTTPPSLIIPLLSPIFLRISSSSSNSVILNFSVKASFLVSKILLINLRAGFTGSLILSAGKPPFITSSSKSSIGTTPGVSKSQIFLVSLIICLPFVYPGIGAVPTECFPLSTFIIVLFPTFGYPINATLTLSLLIIFAIFFSSLLRIPVPFLSLAEIKTTGISLFLLYSSAHSLGTKSALFITNKSFLPLSKTILSSFLFLVPMGSLASTTSTTMSASSITSFTIAQAFFCFIPHHRYFKDYGTPWGIRGARVGTLDVGLILGSKPYFFWLHAFSERYYVG”, the protein production result is on record as “failed”.
With “MLKVAIAEDDFRVAQIQEEFLLKIKDVKVMGKALNAKETMELLQREEIDLLLLDNYLPDGIGTDLLPQIHAEFPNVDVIMVTAANENHMLEKAIRNGVSNYLIKPVTLEKFVRTIEDYKRKKQLLHNNNEVNQTLIDNFFGISQTQDIKNLPTGVDPLTLQKVKGIIKGFEEGITIEEMGEQMGASRTTARRYLEYLVATNECTVEYTYGIIGRPERKYRIGRGL”, the protein production result is “failed”.
On to “MLKVLFVPLNRNYVFDYIDDWKNIVADSLSRAGLSSEILIWPSTIKPSMKCFNWARKQYLAPCIIENMGNMFYDYLNEYFIVGIGYIDGYDYGLNFVFGEASPINRIAVVFTRRLDPRFYGEEPNYNLYLERVAKEIVHELGHLLGLSHCKRRTCVMSFSNSVYEVDAKTRFFCETCSNTLRKLNVLEHHHHHH”, for which the protein production result is given as “failed”.
Turning to “MLKYQQIATEIETYIEEHQLQQGDKLPVLETLMAQFEVSKSTITKSLELLEQKGAIFQVRGSGIFVRKHKRKGYISLLSNQGFKKDLEDFNVTSKVIELDVRKPTPEAAENLNIGMDEDIYYVKRVRYINGQTLCYEESYYTKSIVTYLNNEIVSHSIFHYIREGLGLKIGFSDLFLHVGQLNEEEAEYLGLEAGLPKLYIESIFHLTNGQPFDYSKISYNYEQSQFVVQANSFLL”, the protein production result is recorded as “not failed”.
“MLLDKIQNLIIQSDISIFQSMKKMDEEKVKLLFVFRGDCFVGILTIGDIQRAIIKQNDTSMQINNILDQNKVFAYKGESLEIIKNKMIHLRAECMPILDSKGELVDVLFWKDLFIDEVRVDDRKIDLPVVIMAGGKGTRLKPLTNVIPKPLIPIGDKTILEAILDQFESIGCSKFYMSVNYKYDILKFYLAQLDHKYDIRFFKEDKPLGTIGSVSLLKDKISTPFFVSNCDIIIDQDYRDVYDYHINNSNDLTIVTAVKRTRIPYGVIETIENGLMTELIEKPEFTYMINSGVYILQPELINEIPENELFHITHLMEKVKSRGGKIGCFPVSEKSWTDIGEWNEYLKLLGILEHHHHHH”: the protein production entry is “failed”.
As to “MLLILIIIAFVVLFVFFAKYQKKQAQAAALAAGDPSALLNHGLTLINQNQVETGLDFIHQAVDKGFAIAAIALAELYSGRFPQVPADAKASNDWYKKAAELDPQYLAMLTLPNLLSSQAQTPDELIAQVEQLKPNAEAGQAEFQYELAYLYLRQPFLDPDASQAIYWFEKAAAQNKQEANYHLGTLYKDDERITSDYNKARKYFEKAVAAGDELAKDNLAHMLATGQGGPKDLVRAEHLLSEYAAEDDFRQYYLGKRFLYGEDFAVDYDKARHWLEKSSAAGNVFAKLALAHLKLLAQKNDQDYLQARTEFEALAPQWQEEALFGLGKIYEEGLGVSRQPIKALMYYQLAAMSHNTDYLTAYDKLSKRLGTLEIREAQSLCNNFLHQHPIPNEQQAYYYLNQAEIYRKGDHPSREGLQTAETWYRKSADLGNQNAMQALVEIYRHELMDKPVQAFIWSSILLRNFGKYGMNSDQLLYQQQAQSRLTESELLYAQSEIERIEALLTPYLETHQSV”, the protein production result is “failed”.
Consider “MLLLHWDNMGKIELHHVFVMLSCIYLIFSDISINSAVVFLFSSIFFYISFTAGKRLYYLIGIDKENLKINLKKHYNFGIFLMIVGLIAVTSDLIWVKDVPLFNPLSRKFLNVYFTTLSHLFLVGWAIVVASSNIDKKKILLYTIIFSILIMLLGYRTNVLVLLISVGAILYYKNKISNREILKYGILVFVILLGLSILRLYALGVEGNPITSRISLTMSIYDIIFNNFNGVFNGYIHYSAVFSYLGLCNGARTVIAKTLGIYNVSITPTIVGAVIGDYGTLAIIPYFGILGIFLGFFYKLAKDVKGIYLGIYGILFAYTLIGIESGILDIDVILYYFFGLILCIYAILLRKLKR”, for which the protein production result is “failed”.
Then “MLLSFDNKAIADWAKLSGDYNPIHFEVERARETGANDIIVHGMLPLLHIKQRLSTVLPADTGRDWVSVKAMFRSPVLRQLPHALEIQPGKQRSRFSLRATHDASEVMAGSVYRSVPAESPEQPASFSIDRQLFREKRAVFAEAFPDFDRAWLLVDALTFSQFLSSEVPFSIVRDLAKMSGIASQHELMDAALTVQTAHTVMVEPELFRMPLSQLKDPGEIRCELHAPVTVPNSKDTLSGLSQFTVRLDGRPVMQSEVGLLVRFKS”, with “failed”.
Regarding “MLLSIIMPAHNAAAYLERTLALLAQQIAGLEQVEVVAIDDASTDETAKILVEFARTHSWLKAISVDFANVGLARQAGIGLAGGQYVTFLDSDDAFLSGGLAWMVNVLRQRAPDLLMTPLQETGQPLDGTEVAGLFQDVVPLSTQQACDLFCEHQRLQGHFAGKCVTRQILLQHDLAAMECYEDMMTTPHWIVEAKSIVWGEVPVYAYYKRPGSLSDRGQTWRYGKEYIRALQSIEAAFAGRIAVWQTAHLWIGFAKDLLKTSTGRQFLDTQPAVAEKIQSISVWKYLVATQVSCKWKIRFLRVRLRLLEHHHHHH”, the protein production result is “not failed”.
As to “MLLYIHGFNSSPFSDKAVITARYMAEYHPSLTFHQPQLPNTPKAAMALLQSYVEAAQQANEPLNYIGSSLGGYFASYLAERYGGRAVLVNPAVKPFELFDEFMGPQFNPYTQEHYQVLPEHKREVAEFNTPVIRNPERFLVLLQTGDEVLDYREALHKYHHCQLRIESGGDHSFVGYERYLQTVSQFLH”, the protein production result is given as “failed”.
Consider “MLNAIKFRIYPNAQQKELISKHFGCSRVVYNYFLDYRQKQYAKGIKETYFTMQKVLTQIKRQEKYHYLNECNSQSLQMALRQLVSAYDNFFSKRARYPKFKSKKNAKQSFAIPQNIETKTETQTIALPKFKEGIKAKLHRDLPKDSVIKQAFISCIADQYFCSLSYETKEPIPKPTIIKKAVGLDMGLRTLIVTSDKIGYPHIRFYQKLEKKLTKAQRRLSKKVKDSNNRKKQAKKVSRLHLACSNTRDDYLHKISNEITNQYDLIGVETLNVKALMRTYHSKSLANASWGKFLTMLEYKAQRKGKTLLSIDRFFPSSQLCSYCGVNTGKKHESITKFTCPHCQTTHHRDYNASVNIRNYALGMLDDRHKVKTDKARVGIIRSDYTHHTNECVKACGASSNGVSSKYGNILDLASYGAMKQEKAQSL”, for which the protein production result was “failed”.
As for “MLNGLWLGFFLVAAVSAMAQWLVGGNAGIFAAMVESIFAMAKLSVEVMVLLFGTLTLWLGFLKIAEKAGIVEWLAKVLGPLFARLMPEVPPGHPALGLITMNFAANGLGLDNAATPIGLKAMRALQELNPGSTTASNAQILFLVLNASSLTLLPVTVFMYRAQQGAPDPTMVFLPILLATSVSTLVGLLSVAVMQRLRLWDPVVLAYFIPGALLLGGFMAFLGTLSAAALASLSSLLGNLTLFGVIMLFLVVGALKRVKVYEAFVEGATEGFDVAKSLLPYLVAMLVAVGVLRASGALELALDGIRHAVSWMGLDTRFVEGLPTALVKPFSGSAARAMLIETMQTQGVDSFPALVAATIQGSTETTFYVLAVYFGAVGIQRVRHAVGCALLAEFSGVVAAIFVCYWFFA”, the protein production entry is reported as “failed”.
As to “MLNPDELVAIDIHTHAEEPCGCHADDGYDDFQARMAEYFGSPNKHPPTVPETAAYYRAKKIAAVIFPVDAERETGFRRYNNDEMIEITRQNSDVLIPFASIDPHKGKIGVREARRLIADYGIKGFKFHPTMQGFYANDRLAYPLYEAIQEGGAIALFHTGQTGVGSGMPGGMGMRLKYSNPMYMDDVAADFPDMKIVLAHPSFPWQEEALSVATHKPNVYIDLSGWSPKYFPPILVRYINSILQDKMLFGSDWPVITPDRWLSDFAKLEIREEVRAKVLKQNARKLLGI”, the protein production result was “failed”.
